Test results reported in US20060019335A1, “Compositions and methods to promote c-IAP autodegradation” (priority 2004, published 2006).
Entries after “also recorded” stand apart in the source; their conditions may differ.

B1: Smac: wild type (WT) Smac polypeptide from Homo sapiens, SEQ ID NO 1, 239 amino acids; second mitochondria-derived activator of caspase (protein, listed as Homo sapiens)
chain: MAALKSWLSRSVTSFFRYRQCLCVPVVANFKKRCFSELIRPWHKTVTIGFGVTLCAVPIAQKSEPHSLSSEALMRRAVSLVTDSTSTFLSQTTYALIEAITEYTKAVYTLTSLYRQYTSLLGKMNSEEEDEVWQVIIGARAEMTSKHQEYLKLETTWMTAVGLSEMAAEAAYQTGADQASITARNHIQLVKLQVEEVHQLSRKAETKLAEAQIEELRQKTQEEGEERAESEQEAYLRED
B2: Smac ΔA: Smac mutant lacking the initial Ala (Ala deletion mutant polypeptide), used as negative control (protein, UniProt Q9NR28 22-239, looked up, variant A1*)
Diablo IAP-binding …: LCVPVVANFKKRCFSELIRPWHKTVTIGFGVTLCVPIAQKSEPHSLSSEALMRRAVSLVTDSTSTFLSQTTYALIEAITEYTKAVYTLTSLYRQYTSLLGKMNSEEEDEVWQVIIGARAEMTSKHQEYLKLETTWMTAVGLSEMAAEAAYQTGADQASITARNHIQLVKLQVEEVHQLSRKAETKLAEAQIEELRQKTQEEGEERAESEQEAYLRED

Assays:
[1] = test system: c-IAP1; assay: Co-transfection of HeLa cells with c-IAP1 and Smac plasmids, Western blot; format: cell-based, human; conditions: for auto-ubiquitylation (E3 activity) of c-IAP1: co-transfection, FIG. 2A
Description: (§1) Transfection of cultured Cells—HeLa cells were grown in DMEM supplemented with 10% fetal bovine serum. Cells were seeded onto 6-well plates the day before transfection and transfected at 70% confluence by using Lipofectin combined with Plus reagent (Invitrogen) according to the manufacture's protocols. The IAP expression plasmids (3 μg each for c-IAP1, c-IAP2 and XIAP, and 250 ng each for Livin αand Livin β) together with 2.5 μg of Smac expression plasmids or pcDNA3.1(−) blank plasmid were used for single-well transfection in the absence of antibiotics. The cells were harvested 12 hours after the transfection and lysed with 0.5% CHAPS in 20 mM HEPES (pH 7.4), 10 mM KCl, 1 mM MgCl2 and 1 mM DTT. The lysates were centrifuged and the protein concentrations of the supernatants were quantified by the modified Bradford method (36).
(§2) Western Blot analysis—Proteins were resolved by SDS-PAGE and transferred to nitrocellulose filters. The filters were blocked with 5% milk and probed with antibodies as indicated. The signals were visualized with the enhanced chemiluminescence method.
(§3) To investigate the effect of Smac polypeptide on IAP protein levels, HeLa cells were transfected with the expression vectors for Smac and various IAPs. Briefly, HeLa cells were either transfected with IAP alone (Lane 2, 4 and 6), or together with Smac polypeptide (Lane 3, 5 and 7), or with Smac polypeptide alone (Lane 1). Equal amounts of cell lysates (7 μg) were immunoblotted with either the HRP-conjugated anti-FLAG antibody (shown in the top panel) in order to detect N-terminal 3×FLAG tagged IAPs, or with the anti-c-Myc antibody (bottom panel) to detect C-terminal c-Myc tagged Smac. The ubiquitin fusion technique was used to secure the production of mature Smac protein with the expected N-terminal AVPI motif (6, 37).
(§4) Because it is known that the His^588 residue in the RING finger domain is important for the IAP E3 activity (22), this residue was mutated to test whether Smac stimulated the ubiquitylation-mediated degradation of both c-IAP1 and c-IAP2. In each case, His^588 in c-IAP1 and His^574 in c-IAP2 was mutated to Ala (H588A mutant and H574A mutant, respectively) and the results are depicted in FIGS. 2A and 2B. The c-IAP1 WT or H588A mutant plasmids together with either Smac WT or Smac ΔA mutant, or with pcDNA3.1 (−) blank plasmid were co-transfected into HeLa cells (FIG. 2A). The c-IAP2 WT or H574A mutant plasmids together with either Smac WT or Smac ΔA mutant, or with pcDNA3.1 (−) blank plasmid were co-transfected into HeLa cells (FIG. 2B). As controls, HeLa cells were also transfected with either Smac WT or ΔA plasmids together with the blank p3×FLAG-CMV-7 plasmid. The transfected cells were cultivated either in the absence (see lanes 1-7 of FIGS. 2A and 2B) or in the presence (see lanes 8-14 of FIGS. 2A and 2B) of MG132. Equal amounts of soluble proteins (7 μg) from the transfected cells were immunoblotted with either the HRP-conjugated anti-FLAG antibody (see top panel of FIGS. 2A and 2B) to detect N-terminal 3×FLAG tagged IAPs, or with the anti-c-Myc antibody (see middle panel of FIGS. 2A and 2B) to detect C-terminal c-Myc tagged Smac. The anti-Actin immunoblotting results were to show equal protein loading (see bottom panel of FIGS. 2A and 2B).

[2] = molecular target: T1, c-IAP2 (Homo sapiens, UniProt Q13489); assay: Co-transfection of HeLa cells with c-IAP2 and Smac plasmids, Western blot; format: cell-based; conditions: for ubiquitylation and degradation (E3 activity) of c-IAP2: co-transfection, FIG. 2B
T1 construct: produced not only the expected full length c-IAP1 or c-IAP2; expressed in transfected cells; host or cells: HeLa
Description: as §1, §2, §3, §4

[3] = test system: c-IAP1; assay: In vitro ubiquitylation assay of purified c-IAP1 and BIR deletion mutants; format: biochemical, human; conditions: for c-IAP1 auto-ubiquitylation in vitro: full length c-IAP1, UbCH6 as E2, FIG. 7A
Description: (§5) In vitro ubiquitylation assays—In vitro ubiquitylation assays were carried out as previously described (29). IAP proteins (200 nM) were incubated with or without Smac polypeptide for 2 hours at 30° C. in a reaction system containing 50 mM Tris-HCl (pH 7.5), 50 mM NaCl, 2 mM Mg-ATP, 20 μM mammalian ubiquitin, 100 nM rabbit ubiquitin-activating enzyme (E1) and 400 nM of recombinant human ubiquitin-conjugating enzymes (E2). The reactions were stopped by adding equal volumes of 2×SDS sample loading buffer followed by Western Blot analysis.
To determine whether Smac promotes auto-ubiquitylation of XIAP, purified XIAP (without tag) was incubated for 2 hours at 30° C. either with or without different concentrations of Smac or with Smac ΔA in the reconstituted ubiquitylation reaction system (Ub Mix) consisting of 50 mM Tris-HCl (pH 7.5), 50 mM NaCl, 2 mM Mg-ATP, 20 μM mammalian ubiquitin, 100 nM rabbit ubiquitin-activating enzyme (E1) and 400 nM UbCH6 (E2). The reactions were stopped by adding equal volumes of 2×SDS sample loading buffer and the products were subjected to SDS-PAGE followed by immunoblotting with anti-XIAP antibody. The purified XIAP was active in directing poly-ubiquitylation. But the auto-ubiquitylation of XIAP was not enhanced by Smac.
Smac ΔA and the peptide Smac-7M were used as negative controls. The reactions were stopped by adding equal volumes of 2×SDS sample loading buffer and the products were subjected to SDS-PAGE followed by immunoblotting with anti-c-IAP1 antibody. The arrows indicate the unmodified full length or deleted c-IAP1.
To verify this, stepwise deletion was performed of the first BIR (ΔBIR1, residues 1-161), the first two BIRs (ΔBIR1-2, residues 1-265), or all the three BIR domains (ΔBIR1-2-3, residues 1-339) from c-IAP1. All these mutants and the full-length wild type c-IAP1 were purified as a non-tagged form by using the pTYB11 Intein system (New England Biolabs).

[4] = molecular target: T1, c-IAP2; assay: In vitro ubiquitylation assay of c-IAP2; format: biochemical; conditions: data not shown
Description: as §5
The observation that Smac promotes c-IAP1 auto-ubiquitylation in HeLa cells was further confirmed in vitro by using UbCH6 as the E2.

[5] = mature Smac co-expressed, FIG. 1
[6] = listed as Smac mutant lacking the initial Ala residue

T1 sequence (Q13489 whole entry): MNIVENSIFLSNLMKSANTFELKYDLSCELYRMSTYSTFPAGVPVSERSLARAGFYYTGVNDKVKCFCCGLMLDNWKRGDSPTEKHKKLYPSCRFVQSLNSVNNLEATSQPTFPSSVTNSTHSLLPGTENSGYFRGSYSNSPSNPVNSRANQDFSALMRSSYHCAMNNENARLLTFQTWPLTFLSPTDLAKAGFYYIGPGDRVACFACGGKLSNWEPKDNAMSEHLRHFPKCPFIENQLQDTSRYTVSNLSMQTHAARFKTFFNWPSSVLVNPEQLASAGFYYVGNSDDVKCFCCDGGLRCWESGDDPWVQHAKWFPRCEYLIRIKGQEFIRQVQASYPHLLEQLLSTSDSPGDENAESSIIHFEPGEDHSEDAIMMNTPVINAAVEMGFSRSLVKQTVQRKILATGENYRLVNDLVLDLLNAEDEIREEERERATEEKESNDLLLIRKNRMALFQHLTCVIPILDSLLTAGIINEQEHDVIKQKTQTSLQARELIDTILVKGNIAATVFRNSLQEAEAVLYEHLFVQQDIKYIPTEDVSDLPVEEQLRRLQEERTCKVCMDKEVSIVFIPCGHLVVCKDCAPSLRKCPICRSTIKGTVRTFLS

Molecule	level of wild type c-IAP1 ([1]; co-expression, absence of MG132, FIG. 2A)	levels of non-/mono-/di-ubiquitylated and highly ubiquitylated c-IAP1 forms ([1]; co-expression, presence of MG132, FIG. 2A)	level of E3-negative H588A c-IAP1 ([1]; either in the absence or in the presence of MG132)	protein level of c-IAP1 [1, 5]	level of c-IAP2 ([2]; co-expression, absence of MG132, FIG. 2B)	ubiquitylation and degradation (E3 activity) of c-IAP2 [2]	protein level of c-IAP2 [2, 5]	auto-ubiquitylation activity of c-IAP1 ΔBIR1-2-3 ([3]; all three BIR domains deleted (residues 1-339), FIG. 7A)	auto-ubiquitylation activity of c-IAP1 ΔBIR1 ([3]; first BIR deleted (residues 1-161), FIG. 7A)	auto-ubiquitylation activity of c-IAP1 ΔBIR1-2 ([3]; first two BIRs deleted (residues 1-265), FIG. 7A)	c-IAP1 auto-ubiquitylation in vitro [3]	auto-ubiquitylation (E3 activity) of c-IAP1 [1]	auto-ubiquitylation (E3 activity) of c-IAP1 [1, 6]	c-IAP1 auto-ubiquitylation in vitro [3, 6]	E3 activity of c-IAP1ΔBIR1 ([3]; peptides and controls, FIG. 7B)	c-IAP2 auto-ubiquitylation in vitro [4]
B1	nearly complete disappearance of c-IAP1; also recorded: nearly non-detectable level	reduction in the level of non-ubiquitylated and mono-/di-ubiquitylated wild type c-IAP1 and a concomitant increase in the level of highly ubiquitylated c-IAP1 forms	did not cause a drastic change	significantly decreased	nearly non-detectable level	strongly promoted the ubiquitylation and degradation of c-IAP2	significantly decreased	could no longer be enhanced	significantly enhanced	significantly enhanced	significantly enhanced c-IAP1 auto-ubiquitylation					
B2						did not promote the E3 activity					failed to promote such auto-ubiquitylation	did not enhance the auto-ubiquitylation of c-IAP1	did not promote the E3 activity	did not promote the E3 activity	failed to activate c-IAP1	did not promote the E3 activity
